Reference: patent US20030236190A1 (published 2003)
Positions of bridges follow the written chain, without caps; N, C: chain ends. No end group written: not given here.

How the values were obtained:
[1] = molecular target: T1, Soluble IGF-1R (R&D Systems, Cat. # 391-GR/CF); recombinant human IGF-1R (human, UniProt P08069 31-935); experiment: phage ELISA, vs IR
T1 construct: extracellular domain; Eu3+-labelled in the TR-FRET assays; also called sIGF-1R; rhIGF-1R

[2] = molecular target: T1, Soluble IGF-1R (R&D Systems, Cat. # …); experiment: phage ELISA vs milk
[3] = molecular target: T2, Insulin receptor prepared according to Bass et al., 1996: soluble human insulin receptor-immunoglobulin heavy … (human, UniProt P06213 28-956); experiment: phage ELISA vs milk
T2 construct: extracellular domain; Eu3+-labelled in TR-FRET; also called IR; sIR-Fc; not shown: immunoglobulin heavy chain constant domains that replace the transmembrane and i

[4] = molecular target: T2, Insulin receptor prepared according to …; experiment: phage ELISA, vs IGF-1R

Row | IGF-1R/IR Comparison [1] [ratio] | Ratio over Background [2] [fold] | Ratio over Background [3] [fold] | IR/IGF-1R Comparison [4] [ratio] | Binder
1 | 11.1 | 16.7 | 1.5 | 0.1 | LRIANLFYQRLWDLAFGGGG [20E22-3-E8-IGFR]
2 | 13.1 | 16.3 | 1.3 | 0.1 | PDLHKGFYAQLAQLIRGQLLS [20E2H-3-E3-IGFR]
3 | 7.4 | 5.3 | 0.7 | 0.1 | ICTGQGFYQVLCGLLRGTSAR (disulfide 2-12 (inferred)) [20E2B-2-B3-IGFR]
4 | 11.3 | 17.7 | 1.6 | 0.1 | GGTEVDFYRALERLVRGQLGL [20E23-3-D8-IGFR]
5 | 7.7 | 14.7 | 1.9 | 0.1 | QPDHSYFYSLLQELVGSEERL [20E2B-4-F9-IGFR]
6 | 6.2 | 20.4 | 3.3 | 0.2 | ASSASGFYELLQRLAGLGLEV [20E2B-3-C4-1GFR]
7 | 7.2 | 5.7 | 0.8 | 0.1 | IWATGDFYRLLSQLVMGRVGT [20E2B-2-88-IGFR]
8 | 7 | 4.5 | 0.6 | 0.1 | RQGTGSFYLMLEQLLVGARGP [20E2B-4-G11-IGFR]
9 | 6.7 | 6.7 | 1 | 0.1 | RGIVAMVEATEVGSDHDPFYHKLSELVQGS [B6Hα-2-C7-IR]
10 | 5.3 | 5.8 | 1.1 | 0.2 | SGAKVIVVTGDSGDPFYHKLSELLQGS [B6Eα-2-C10-IR]
11 | 8.9 | 15.6 | 1.8 | 0.1 | QPAPDGFYSALMKLIGRGGVS [20E2B-3-C8-IGFR]
12 | 7.1 | 10 | 1.4 | 0.1 | EGSGFYGYFFSLLGLQG [NNRPy-4-A9-IR]
13 | 11.7 | 12.4 | 1.2 | 0.1 | IQQELTFYDLLHRLVRSELGS [20E2B-3-D2-IGFR]
14 | 13.7 | 20.8 | 1.5 | 0.1 | SSYGCDGFYLMLFSLGLVASQELEC (disulfide 5-25 (inferred)) [20C-3-A1-IGFR]
15 | 9.7 | 7.3 | 0.8 | 0.1 | PVGVQGFYEGLSRLVLGRGGW [20E22-4-F8-IGFR]
16 | 6 | 7.7 | 1.3 | 0.2 | FFYRCLSRLLGGQLGSRLGLSCIGD (disulfide 5-22 (inferred)) [20C-3-E4-IGFR]
17 | 5.9 | 5.3 | 0.9 | 0.2 | PAGPCGFYCGLGLLLHGDQSP (disulfide 5-9 (inferred)) [20E2B-4-H8-IGFR]
18 | 14.1 | 26.1 | 1.9 | 0.1 | DRDFCRFYERLTALVGGQVDGGWPC (disulfide 5-25 (inferred)) [20C-3-F6-IGFR]
19 | 6.9 | 17.8 | 2.6 | 0.1 | DSVGDNFYQLLESLVGGHGVG [20E28-3-D6-IGFR]

Row | IGF-1R/IR Comparison [1] [ratio] | Ratio over Background [2] [fold] | Ratio over Background [3] [fold] | IR/IGF-1R Comparison [4] [ratio] | Binder
20 | 8.1 | 4.9 | 0.6 | 0.1 | PGTDLGFYQALRCVVIQGACD (not fully specified (bridges); cysteine pairing not given here) [20E2B-2-22-IGFR]
21 | 5 | 4.4 | 0.9 | 0.2 | TLRSPTFYDWLEMVLTHGQGG [20E22-1-A8-IGFR]
22 | 6.7 | 6.1 | 0.9 | 0.1 | LSSDGQFYRALNLLLQGSAGR [20E2B-2-B7-IGFR]
23 | 9.6 | 7.9 | 0.8 | 0.1 | NSRDGGFYLQLERLLGFPVTG [20E2B-3-D4-IGFR]
24 | 12.9 | 39.9 | 3.1 | 0.1 | FYDAIDQLVRGSARAGGTRD [R20α-3-2082-IR]
25 | 5.6 | 5.2 | 0.9 | 0.2 | RCQGTGFYTCIQELIGFGDPD (disulfide 2-10 (inferred)) [20E2B-4-E9-IGFR]
26 | 11.7 | 18.7 | 1.6 | 0.1 | RGMKEEVLVGGSTDPFYHKLSELLQGS [B6Hα-3-F11-IR]
27 | 7.6 | 12.2 | 1.6 | 0.1 | LGVTDGFYAALGYLIHGVGQF [20E2B-3-D11-IGFR]
28 | 10.3 | 30.8 | 3 | 0.1 | DRAFYNGLRDLVGAVYGAWD [R20α-4-20C11-IR]
29 | 9.7 | 9.5 | 1 | 0.1 | RFSTDGFYQYLLALVGGGPVG [20E28-1-A11-ICFR]
30 | 7.3 | 6 | 0.8 | 0.1 | VATSQGFYSGLSELLQGGGNV [20E2H-3-E12-IGFR]
31 | 13.8 | 8.9 | 0.6 | 0.1 | GNGDGMFYQLLSLLVGRDMHV [20E22-3-C2-IGFR]
32 | 7.6 | 8.8 | 1.2 | 0.1 | QFYGCLLDLSLGVPSFGWRRRCITA (disulfide 5-22 (inferred)) [20C-3-A4-IGFR]
33 | 4.9 | 6.3 | 1.3 | 0.2 | RFDPFYSYFVNLLGASA [NNRPγ-4-A7-IR]
34 | 5.1 | 5.4 | 1.1 | 0.2 | VGTVAGFYDAIAQLVARASRV [20E2A-3-C7-IGFR]
35 | 7.3 | 6.2 | 0.9 | 0.1 | QGNVLDFYGWIGRLLAKQGSD [20E2B-3-D12-IGFR]
36 | 13.9 | 14.8 | 1.1 | 0.1 | KLHNLMFYYGLQRLVWGAGLG [20E2B-4-H3-IGFR]
37 | 6 | 10.9 | 1.8 | 0.2 | IIGGFYSYFNSVLRLGT [NNRPγ-4-A1-IR]
